According to paper PMC7026729 (EBioMedicine, 2020):

Target: the molecule itself
Test: cross-linking

| Protein | stoichiometry N |
| --- | --- |
| Bacterial lipocalin Blc^G84 (natural protein, E. coli, UniProt P0A901 19-177, looked up) CSSPTPPRGVTVVNNFDAKRYLGTWYEIARFDHRFERGLEKVTATYSLRDDGGLNVINKGYNPDRGMWQQSEGKAYFTGAPTRAALKVSFFGPFYGGYNVIALDREYRHALVCGPDRDYLWILSRTPTISDEVKQEMLAVATREGFDVSKFIWVQQPGS | 2 |
| Bacterial lipocalin Blc^E84 (natural protein, E. coli, UniProt P0A901 19-177, looked up) CSSPTPPRGVTVVNNFDAKRYLGTWYEIARFDHRFERGLEKVTATYSLRDDGGLNVINKGYNPDREMWQQSEGKAYFTGAPTRAALKVSFFGPFYGGYNVIALDREYRHALVCGPDRDYLWILSRTPTISDEVKQEMLAVATREGFDVSKFIWVQQPGS | 2 |
